The target in data set [1] is T1, alpha-thrombin (Homo sapiens, UniProt P00734;P00734 328-363;364-622). Briefly: ITC.
Data set [2] deals with T1, alpha-thrombin. Briefly: ITC. This is another data set of the same source.
Data set [3] deals with T1, alpha-thrombin. Briefly: ITC. This is another data set of the same source.
For data set [4], the target named is T1, alpha-thrombin. Briefly: native MS.
Data set [5] has as its target T1, alpha-thrombin. Briefly: EMSA.

These results are taken from article PMC12260427.

Where two headings read alike, the source gives them in different places.

B1: ss(ATTCC)18 (structured_DNA)
DNA: ATTCCATTCCATTCCATTCCATTCCATTCCATTCCATTCCATTCCATTCCATTCCATTCCATTCCATTCCATTCCATTCCATTCCATTCC
With B1, the Kd came to 174 nM in data set [1], 1460 nM in data set [2] and 746 nM in data set [3].

B2: ss(ATTCG)18 (ssDNA)
DNA: ATTCGATTCGATTCGATTCGATTCGATTCGATTCGATTCGATTCGATTCGATTCGATTCGATTCGATTCGATTCGATTCGATTCGATTCG
On to B2, for which the binding result in data set [4] is reported as “no binding”.

B3: ss(GGAAT)18 (ssDNA)
DNA: GGAATGGAATGGAATGGAATGGAATGGAATGGAATGGAATGGAATGGAATGGAATGGAATGGAATGGAATGGAATGGAATGGAATGGAAT
Turning to B3, the binding result in data set [5] is “no binding”.
